This is an account of results in the DeepSol protein solubility set.

This series can be described thus: soluble on expression in E. coli; label from the status in PepcDB or PDB records.
Consider “MGSDKIHHHHHHMKRDFLGRTLAVIEDLSVEEQMFLYEKTRELKQRWYSGEDVSDFRIKKRNVGIYIVFVEPSTRTKESFINAAKFHSGPNVKVNVFDSEHSSFNKQESYTDTFSMLTGYSDYSIFVVRTRLEGVCRLLERRISEFASRNGIEVPSFINAGDGKHEHPTQELLDEYTFLEQNGFDNSFIHVALVGDLLHGRTVHSKVNGLKIFKNVKVDLVAPEELMMPEHYVEKMKKNGFEVRIFSSIREYLDQKDVAKIWYFTRLQLERMGEDILEKVHVLREAVTFKKEYLDALPEGVKFYHPLPRHKVYPTIPNFLDTLPLNGWETQARNGYWVRIVLLSMFGGALEAPFDTSKKEEKPEEDFIIPAPITHGSKGVQKEGKRGIKPIENGTVIDHIAKGKTPEEIYSTILKIRKILRLYDVDSADGIFRSSDGSFKGYISLPDRYLSKKEIKKLSAISPNTTVNIIKNSTVVEKYRIKLPPTIYGFEELRCKNENCITNPAHGENASPSFVRNEKGQFICEYCETPHSFEEIWSI”, for which the “soluble on expression in E. coli” value is on record as “not soluble”.

Turning to “MNLEGLEMIAVLIVIVLFVKLLEQFGLIEAGLEDSVEDELEMATVRHRPEALELLEAQSKFTKKELQILYRGFKNECPSGVVNEETFKEIYSQFFPQGDSTTYAHFLFNAFDTDHNGAVSFEDFIKGLSILLRGTVQEKLNWAFNLYDINKDGYITKEEMLDIMKAIYDMMGKCTYPVLKEDAPRQHVETFFQKMDKNKDGVVTIDEFIESCQKDENIMRSMQLFENVI”, the “soluble on expression in E. coli” value was “soluble”.

In the case of “MSLMPPFLRILGIETSCDETAASIVVRHADGRGEIVSDVVLSQLEEHSAYGGVVPEIAARAHVEALDTLVEEALDQAGVKLADVDAIAATSGPGLIGGLLVGLMTGKAIAKAAGKPLYAINHLEGHALTARLTDGLSFPYLMLLVSGGHTQLVLVRGVGEYERWGTTIDDALGEAFDKTAKLLGLPYPGGPAVENAAAKGDPDRFPLPRPMVGEARLDFSFSGLKTAVRQAATAIAPLSEQDIADICASFQKAVSRTLKDRIGRGLARFKVEFPHINGEPALVVAGGVAANQEIRQTLQALCDTHGFRFVAPPHRLCTDNAAMIAWAGLERMAEGRQADALEVAPRSRWPLDGSAETLIGFGKRGAKAEGHHHHHH”, the “soluble on expression in E. coli” value is reported as “not soluble”.

“MAHHHHHHMGTLEAQTQGPGSMSFSNVPAGKDLPQDFNVIIEIPAQSEPVKYEADKALGLLVVDRFIGTGMRYPVNYGFIPQTLSGDGDPVDVLVITPFPLLAGSVVRARALGMLKMTDESGVDAKLVAVPHDKVCPMTANLKSIDDVPAYLKDQIKHFFEQYKALEKGKWVKVEGWDGIDAAHKEITDGVANFKK”: the “soluble on expression in E. coli” value was “soluble”.

Turning to “MGSDKIHHHHHHMNINISGKRVLVTASTEGIGRGIAEAFLREGCNVVISSRNKDKIEKAILEMRKIGPSVWGFPADLTDFKSLEELVGYALKIMNGIDILVVNSGNPPKEPSYFFENTMEDWEYATKLYLLSAIKLTNLVYQYMKAQRWGRIFFLSSWTIKEPQRIFSLADITRAPLIQMAKLLSKELGEYNVNVNVILMGSFETEGAKRSLKKYAEKVGQPLDVIWKREVISQIPIGRTGDIKNELGSLLVFLSSDYAGYINGTSILIDGGMSRAI”, the “soluble on expression in E. coli” value was “not soluble”.

Turning to “MQVCRQWVTLSLYNNGKWPKMKYQQLENLECGWKWQYLINKWKDGEPVTRYIDKSEIEAAVQKLRAIEHEPTHVLSWIEEHMSSELDNKLKQAIRAKRKRHFNAEQIHTRKKSIDLDYRVWEKLSLKANELGCTLSDAIEYLLSEASRSEKASKTVNSLKEDLSRLLAE”, the “soluble on expression in E. coli” value is recorded as “not soluble”.

Consider “MKLTVVGLGYIGLPTSIMFAKHGVDVLGVDINQQTIDKLQSGQISIEEPGLQEVYEEVLSSGKLKVSTTPDASDVFIIAVPTPNNDDQYRSCDISLVMRALDSILSFLEKGNTIIVESTIAPKTMDDFVKPVIENLGFTIGEDIYLVHCPERVLPGKILEELVHNNRIIGGVTEACIEAGKRVYRTFVQGEMIETDARTAEMSKLMENTYRDVNIALANELTKICNNLNINVLDVIEMANKHPRVNIHQPGPGVGGHCLAVDPYFIIAKDPENAKLIQTGREINNSMPAYVVDTTKQIIKVLSGNKVTVFGLTYKGDVDDIRESPAFDIYELLNQEPDIEVCAYDPHVELDFVEHDMSHAVKDASLVLILSDHSEFKNLSDSHFDKMKHKVIFDTKNVVKSSFEDVSYYNYGNIFNFIDK”, for which the “soluble on expression in E. coli” value is on record as “not soluble”.

With “SATQIPSTISILATSDIHGNVLNYDYATGKAPTNTQGLAKVSSYVNSVRASKPNVMLIDDGDTIQGTPLSYYYDKIDTTSEYPLMKIMGAMKYDTWTLGNHEFNYGLPTLNRVISDARKENINVLSANTYNSDNTNFVNPYYIKTFNINGKTVNVGILGLTTKCIPDWEDPSHYAGLHFNDLVDEAKLWVPRMKAAGANVVIVAAHSGEEGAADTIPENQIKAIATNVSGIDAIVAGHAHVTVNDTSLKNPNGKTVPVVEPNKWGTFVSQIDITLDNSGNASTINTQNVKMTDSIPEDPNIVNIIQPYQNKTLDYIST”, the “soluble on expression in E. coli” value is reported as “not soluble”.

Take “MGSDKIHHHHHHMSRYLEMLSLFGVAGAHPGGLAFSKAVLQKAAPSPDQPILDAGCGTGQTAAYLGHLLYPVTVVDKDPIMLEKAKKRFANEGLAIPAYQAELEHLPFSSESFSCVLSESVLSFSRLTSSLQEISRVLKPSGMLIGIEAALKKPMPPAEKKQMMDFYGFTCLHEESEWHKLLRSYGFQKTEAMSLLPEDMEFEPTTEMDLSQTIDPIYYDTLQTHYQLMQLYSEYMGHCIFIAYK”: the “soluble on expression in E. coli” value was “not soluble”.

In the case of “MGSDKIHHHHHHMQMNLGLDVGYGDVKAVYQREGILEMLKFPTAIAYAEREVGDLSAFAGGEEYEYRGRKYFVGREALVGAFSTRSFEFMKRYSPLFVFKAVKKIHRRTGELVTDVAMGLPLSHYTEANLKELVPLLQRIEVGREVLELNARFYPQGLGVLADYRLSQAGDVNARTDRDMIILDIGFNTVDVIVVERGRIVKGESDTLERHGVSKISLDLAREIKVRMQLDLSEQESKDVLRQGRIRVYGAERDLAELVRESAEKYMDWLIQEVHSKWMARIQRAEKVIIAGGGAYYLQEHIPEEYLPLVHVPDHPEYANARGFLKALDVESGK”, the “soluble on expression in E. coli” value is recorded as “not soluble”.

As to “MSLLDIIFPPNNNDDDFYGQHFSLIDSIIVKVAQDSNLSQSLRVYQYLYSWRLFGCMVAVVNNNKTLELGDKRGAIEALYEFITRFRIENPTGDVERKVKLKILEIYMIILNLLKSFENNQDQWFLKTNSYKETTTTRRREGHHHHHH”, the “soluble on expression in E. coli” value is given as “soluble”.

For “MGSDKIHHHHHHMGDLSDIRVFLAVAQQRSFTAAARQLSMTPPTVTRSVSALEQSLGVQLLLRTTRQVSLTSAGAVYAARVEPLIRQFDQVRDDLREEQGDVAGLIRINAPLSLGQQLLPDIVSGFRAEHPQVSVSLSLTDRFIDIVSERFDLALRVSEAPRDRSTIWRKVCRVRRILVASPGYLAIFGTPETPDDLSRHGCIAYDEEAISETWELTNGGRTRKALAGKVLAANNGELIAKLVEDGQGLALLPHFIVGDALASARRAEAGPCRVGASGALADIVLSALRETADARCEILGLLRKICYPYAPAVKKRRTQVLFSRRKASFPAKGEHMLQEFDDALRHASFESDLNGLYAALLLSRSFGSSESRIRSLGRSLPDLSQQKSRFVWRRE”, the “soluble on expression in E. coli” value is “not soluble”.

In the case of “MEVDTASSRHSTVLKRKATDSINEILNYGQSSTSPQKRCKKAASLHKYRDMETYHKIIKTYKAPTWYGCAVSPRDLADYGWACVKKDCVKCIECEQYLSTVLPNICKVSFNVYNSSLQDIHEKMTTAHRTTCKLRCGAPPFRIVEPTAKEVMDGIQRRLSDSKKIIDEDLKADIPSDVNLPKIEGVPEQLIYVAALGWHVSMPKRGSLLFGCDNCARELAIRCGNKFDPIHNHERWCPRIEMDDHGEPSWQSDLNTVLNTKNHVTNRYTGSSIFKEAYAARRLLDSSLSTIITPNYI”, the “soluble on expression in E. coli” value is “not soluble”.

In the case of “MVNYKEKLDEAIHLTQQKGFEQTRAEWLMLDVFQWTRTDFVVHMHDDMPKAMIMKFDLALQRMLLGEPIQYIVGFASFYGRTFDVNSNCLIPRPETEEVMLHFLQQLEDDATIVDIGTGSGVLAITLKCEKPDLNVIATDISLEAMNMARNNAEKHQSQIQFLTGDALKPLINEGIKLNGLISNPPYIDEKDMVTMSPTVTRFEPHQALFADNHGYAIYESIIEDLPHVMEKGSPVVFEIGYNQGEALKSIILNKFPDKKIDIIKDINGHDRIVSFKW”, the “soluble on expression in E. coli” value is recorded as “not soluble”.
